Data on 26 sequences can be found in the Immune Epitope Database (IEDB).

Bounds are passed on as bounds.

For experiment [1], the target named is HLA-B*40:01. As to the kind of experiment: IEDB peptide-MHC binding, purified MHC/competitive/radioactivity; filed as Kd, often an IC50 or EC50 that approximates it; ≥ and ≤ were set here for values at or beyond the usual limits of such assays.
The target in experiment [2] is HLA-B*44:02. The experiment is described as above.
Experiment [3] addresses HLA-B*44:03. The experiment is described as above.
For experiment [4], the target named is HLA-B*15:01. Put plainly: IEDB peptide-MHC binding, purified MHC/direct/fluorescence; filed as Kd, often an IC50 or EC50 that approximates it; ≥ and ≤ were set here for values at or beyond the usual limits of such assays. To be noted: source organism: SARS-CoV1.
Experiment [5] has as its target HLA-A*03:01. The description is as above. To be noted: source organism: SARS-CoV1.
The target of experiment [6] is HLA-A*01:01. The experiment is described as above. To be noted: source organism: SARS-CoV1.
Experiment [7] deals with HLA-B*58:01. The experiment is described as above. To be noted: source organism: SARS-CoV1.
In experiment [8] the target is HLA-A*30:02. As to the kind of experiment: IEDB peptide-MHC binding, purified MHC/competitive/radioactivity; filed as Kd, often an IC50 or EC50 that approximates it; ≥ and ≤ were set here for values at or beyond the usual limits of such assays.
Experiment [9] deals with HLA-A*23:01. The description is as above.
Experiment [10] concerns the target HLA-A*29:02. Described as above.
Experiment [11] has as its target HLA-A*26:01. The description is as above.
Experiment [12] has as its target HLA-A*24:02. The experiment is described as above.
The target in experiment [13] is HLA-B*08:01. Described as above.
In experiment [14] the target is HLA-A*01:01. The experiment is described as above.
Experiment [15] deals with HLA-A*32:01. Described as above.
Experiment [16] addresses HLA-A*30:01. The description is as above. To be noted: source organism: Dengue virus 4 Philippines/H241/1956.
Setting [17] is: source organism: Dengue virus 3 Martinique/1243/1999.
Where [18] appears, read: source organism: SARS coronavirus Tor2.
Setting [19] is: source organism: Vaccinia virus WR.
Setting [20] is: source organism: Dengue virus 3 Singapore/8120/1995.
The mark [21] stands for this setting: source organism: Mammarenavirus choriomeningitidis.
[22] abbreviates: source organism: Dengue virus 2 Jamaica/1409/1983.
Where [23] appears, read: source organism: Dengue virus 4 Philippines/H241/1956.
Where [24] appears, read: source organism: Vaccinia virus Copenhagen.
[25] abbreviates: source organism: Mammarenavirus machupoense.

What is called Kd is the concentration at which binding is half-saturated. On to METLLLLGLM, for which the dissociation constant Kd was found to be 1020 nM in [1] (setting [17]), 62.4 nM in experiment [2] (setting [17]) and 2650 nM in experiment [3] (setting [17]).

For CADGTRHTY, the dissociation constant Kd in experiment [4] was 1260 nM; in [5], 9670 nM; in experiment [6], 438 nM; in experiment [7] it was 1210 nM; in experiment [8] (setting [18]) it was 39.8 nM; in experiment [9] (setting [18]) it was at least 67600 nM. The figures for the Kd in experiment [10] (setting [18]), in experiment [11] (setting [18]) and in experiment [12] (setting [18]) were 963 nM, 2780 nM and at least 37700 nM, respectively.

Turning to SIHEKFWPL, in experiment [13] (setting [19]), the Kd was 1.36 nM.

For KEEHSSTWHY, the Kd worked out at 42.2 nM in experiment [2] (setting [20]) and 205 nM in experiment [3] (setting [20]).

In the case of EGFMRKQKY, the dissociation constant (Kd) in [8] (setting [21]) was at least 53500 nM; in experiment [9] (setting [21]) it was at least 56100 nM; in experiment [14] (setting [21]) it was at least 49600 nM; in experiment [10] (setting [21]) it was at least 78900 nM; in experiment [11] (setting [21]), at least 77900 nM; in experiment [12] (setting [21]), at least 77500 nM.

For KTPVESWEEV, the Kd in experiment [15] (setting [22]) came to 1620 nM.

AILLVAVSF: in experiment [15] (setting [22]), the Kd came to 12800 nM.

As for GTINRILVI, the equilibrium dissociation constant (Kd) in [15] (setting [19]) stood at 14.5 nM.

With ISKVRSNAA, the Kd was 7.31 nM in experiment [13] (setting [23]) and 712 nM in [16].

Take MMRNRTKPI: in [13] (setting [24]), the Kd came out at 1.49 nM.

STANVSLAA: in [14] (setting [17]), the Kd was 2030 nM.

YSIFLIFSI: in [15] (setting [24]), the dissociation constant Kd is 951 nM.

For the sequence STLIFFVII, the Kd in experiment [15] (setting [19]) was determined as 17.8 nM.

As to RQIFIHYSV, the Kd in experiment [15] (setting [24]) is 1.04 nM.

For the sequence AFIDTIKSL, the dissociation constant Kd in experiment [8] (setting [18]) was 13600 nM; in experiment [9] (setting [18]), 5010 nM; in experiment [14] (setting [18]), at least 78100 nM; in experiment [10] (setting [18]), 2950 nM; in experiment [11] (setting [18]), at least 34200 nM; in experiment [12] (setting [18]), 10200 nM.

For CWFADTNLI, the Kd was found to be 88.6 nM in experiment [9] (setting [25]), 1290 nM in experiment [10] (setting [25]) and 101 nM in experiment [12] (setting [25]).

As for TVYAKFASL, the Kd in experiment [13] (setting [19]) stood at 1.64 nM.

As to AERTGEPDY, the Kd in experiment [2] (setting [23]) was 391 nM; in experiment [3] (setting [23]), 851 nM.

Take RRVTRKHMIL: the Kd in experiment [13] (setting [23]) worked out at 64 nM.

For NDLKYSWKTW, the equilibrium dissociation constant (Kd) came to 2720 nM in experiment [2] (setting [23]) and 8890 nM in experiment [15] (setting [23]).

Take REDLWCGSL: the Kd in [1] (setting [23]) is 2.35 nM.

Consider GYTMHANYIF, for which the Kd is 7590 nM in experiment [8] (setting [18]); 16.4 nM in experiment [9] (setting [18]); at least 44100 nM in experiment [14] (setting [18]); 407 nM in experiment [10] (setting [18]); at least 41100 nM in [11] (setting [18]); 11.1 nM in [12] (setting [18]).

Consider AEGVITQDDM, for which the Kd in experiment [1] (setting [23]) stood at 1310 nM.

Regarding AYSNRNRFL, the Kd was at least 54700 nM in [8] (setting [18]); 658 nM in experiment [9] (setting [18]); at least 78100 nM in [14] (setting [18]); 6640 nM in experiment [10] (setting [18]); at least 77900 nM in experiment [11] (setting [18]); 92.2 nM in experiment [12] (setting [18]).

Turning to RTYCIEASI, the equilibrium dissociation constant (Kd) in experiment [15] (setting [23]) was determined as 19.2 nM.

On to CGDPSSLDY, for which the Kd was 870 nM in experiment [8] (setting [25]); at least 77700 nM in experiment [9] (setting [25]); 6.78 nM in [14] (setting [25]); 4730 nM in experiment [10] (setting [25]); at least 74600 nM in experiment [11] (setting [25]); at least 77500 nM in experiment [12] (setting [25]).
